Experimental data: patent US20250051460A1 (Boehringer Ingelheim, published 2025)
Values joined by “and” are separate entries in the source; they are usually repeats but may differ in a detail not shown here. Equal entries are not always repeated. Where two headings read alike, the source gives them in different places.

Experiments:
Assay in all cases: cell-based or functional assay
[1] = target: T1, human VEGF-A (human, UniProt P15692-4 27-191)
[2] = target: T1, human VEGF-A; remark: listed apart in the source
[3] = target: T1, human VEGF-A; remark: listed apart in the source
[4] = target: T1, human VEGF-A; remark: listed apart in the source
[5] = target: T1, human VEGF-A; remark: listed apart in the source
[6] = target: T1, human VEGF-A; remark: listed apart in the source

T1 sequence (P15692 other isoform, or with tags, fused parts or gaps limits assumed): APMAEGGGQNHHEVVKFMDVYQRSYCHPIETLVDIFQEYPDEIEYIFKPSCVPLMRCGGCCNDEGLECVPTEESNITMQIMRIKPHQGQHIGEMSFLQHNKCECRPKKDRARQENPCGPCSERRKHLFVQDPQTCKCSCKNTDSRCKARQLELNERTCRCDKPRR

| Binder | concentration for full inhibition of VEGF-induced HRMEC proliferation [1] [nM] | Bottom plateau (ERK1/2 phosphorylation, counts) [2] [counts] | Bottom plateau (Src phosphorylation, counts) [2] [counts] | IC50 (ERK1/2 phosphorylation) [2] [nM] | IC50 (Src phosphorylation) [2] [nM] | Bottom plateau (ERK1/2 phosphorylation, counts) [3] [counts] | Bottom plateau (Src phosphorylation, counts) [3] [counts] | IC50 (ERK1/2 phosphorylation) [3] [nM] | IC50 (Src phosphorylation) [3] [nM] | IC50 (ERK1/2 phosphorylation) [1] | Bottom plateau (ERK1/2 phosphorylation, counts) [4] [counts] | Bottom plateau (Src phosphorylation, counts) [4] [counts] | IC50 (ERK1/2 phosphorylation) [4] [nM] | IC50 (Src phosphorylation) [4] [nM] | Bottom plateau (ERK1/2 phosphorylation, counts) [6] [counts] | Bottom plateau (Src phosphorylation, counts) [6] [counts] | IC50 (ERK1/2 phosphorylation) [6] [nM] | IC50 (Src phosphorylation) [6] [nM] | other results |
| --- | --- | --- | --- | --- | --- | --- | --- | --- | --- | --- | --- | --- | --- | --- | --- | --- | --- | --- | --- |
| TPP-14937 (bispecific antibody, human IgG1, kappa, L234A L235A) heavy: not shown light: DIQMTQSPSSLSASVGDRVTITCRTSENVYSNLAWYQQKPGKAPKLLIYAASNLQSGVPSRFSGSGSGTDYTFTISSLQPEDIATYYCQHFWGSPFTFGQGTKLEIKRTVAAPSVFIFPPSDEQLKSGTASVVCLLNNFYPREAKVQWKVDNALQSGNSQESVTEQDSKDSTYSLSSTLTLSKADYEKHKVYACEVTHQGLSSPVTKSFNRGEC | 4 | -927 | 4570 | 5.6 | 5.8 | -926 | 4570 | 5.58 | 5.83 |  |  |  |  |  |  |  |  |  |  |
| TPP-11736 (bispecific antibody, human IgG1, kappa, L234A L235A) heavy: not shown light: DIQMTQSPSSLSASVGDRVTITCRTSENVYSNLAWYQQKPGKAPKLLIYAASNLQSGVPSRFSGSGSGTDYTFTISSLQPEDIATYYCQHFWGSPFTFGQGTKLEIKRTVAAPSVFIFPPSDEQLKSGTASVVCLLNNFYPREAKVQWKVDNALQSGNSQESVTEQDSKDSTYSLSSTLTLSKADYEKHKVYACEVTHQGLSSPVTKSFNRGEC |  | 3690 | 6300 | 5.6 | 4 | 3690 | 6300 | 5.59 | 3.97 | ~4 nM and ~10 nM | 3690 | 6300 | 5.59 | 3.97 | 3690 | 6300 | 5.59 | 3.97 | IC50 (p38 MAPK phosphorylation) [1]: ~7.4 nM; IC50 (ERK1/2 phosphorylation) [5]: 9.1 nM; IC50 (p38 MAPK phosphorylation) [5]: 7.7 nM |
| TPP-14936 (bispecific antibody, human IgG1, kappa, L234A L235A) heavy: not shown light: DIQMTQSPSSLSASVGDRVTITCRTSENVYSNLAWYQQKPGKAPKLLIYAASNLQSGVPSRFSGSGSGTDYTFTISSLQPEDIATYYCQHFWGSPFTFGQGTKLEIKRTVAAPSVFIFPPSDEQLKSGTASVVCLLNNFYPREAKVQWKVDNALQSGNSQESVTEQDSKDSTYSLSSTLTLSKADYEKHKVYACEVTHQGLSSPVTKSFNRGEC | 1 | -341 | 4650 | 3.5 | 3.4 | -340 | 4650 | 3.49 | 3.4 |  |  |  |  |  |  |  |  |  |  |
| TPP-14938 (bispecific antibody, human IgG1, kappa, L234A L235A) heavy: not shown light: DIQMTQSPSSLSASVGDRVTITCRASQVIRRSLAWYQQKPGKAPKLLIYAASNLASGVPSRFSGSGSGTDFTLTISSLQPEDFATYYCQQSNTSPLTFGQGTKVEIKRTVAAPSVFIFPPSDEQLKSGTASVVCLLNNFYPREAKVQWKVDNALQSGNSQESVTEQDSKDSTYSLSSTLTLSKADYEKHKVYACEVTHQGLSSPVTKSFNRGEC |  |  |  |  |  |  |  |  |  |  | 1330 | 5480 | 2.71 | 1.8 | 1330 | 5480 | 2.71 | 1.8 |  |
| TPP-14939 (bispecific antibody, human IgG1, kappa, L234A L235A) heavy: not shown light: DIQMTQSPSSLSASVGDRVTITCRASQVIRRSLAWYQQKPGKAPKLLIYAASNLASGVPSRFSGSGSGTDFTLTISSLQPEDFATYYCQQSNTSPLTFGQGTKVEIKRTVAAPSVFIFPPSDEQLKSGTASVVCLLNNFYPREAKVQWKVDNALQSGNSQESVTEQDSKDSTYSLSSTLTLSKADYEKHKVYACEVTHQGLSSPVTKSFNRGEC |  |  |  |  |  |  |  |  |  |  | 1140 | 5540 | 2.51 | 1.16 | 1140 | 5540 | 2.51 | 1.16 |  |
| TPP-11738 (bispecific antibody, human IgG1, kappa, L234A L235A) heavy: not shown light: DIQMTQSPSSLSASVGDRVTITCRTSENVYSNLAWYQQKPGKAPKLLIYAASNLQSGVPSRFSGSGSGTDYTFTISSLQPEDIATYYCQHFWGSPFTFGQGTKLEIKRTVAAPSVFIFPPSDEQLKSGTASVVCLLNNFYPREAKVQWKVDNALQSGNSQESVTEQDSKDSTYSLSSTLTLSKADYEKHKVYACEVTHQGLSSPVTKSFNRGEC |  |  |  |  |  |  |  |  |  | ~4 nM and ~10 nM |  |  |  |  |  |  |  |  |  |
